This experiment deals with purified recombinant GRP78 protein (GRP78-His) (human) (UniProt P11021). Nature of the experiment: ITC. In general terms: Isothermal titration calorimetry measures the heat released or taken up as one component is titrated into another.
Sequence of purified recombinant GRP78 protein (GRP78-His) (human) (P11021 19-654): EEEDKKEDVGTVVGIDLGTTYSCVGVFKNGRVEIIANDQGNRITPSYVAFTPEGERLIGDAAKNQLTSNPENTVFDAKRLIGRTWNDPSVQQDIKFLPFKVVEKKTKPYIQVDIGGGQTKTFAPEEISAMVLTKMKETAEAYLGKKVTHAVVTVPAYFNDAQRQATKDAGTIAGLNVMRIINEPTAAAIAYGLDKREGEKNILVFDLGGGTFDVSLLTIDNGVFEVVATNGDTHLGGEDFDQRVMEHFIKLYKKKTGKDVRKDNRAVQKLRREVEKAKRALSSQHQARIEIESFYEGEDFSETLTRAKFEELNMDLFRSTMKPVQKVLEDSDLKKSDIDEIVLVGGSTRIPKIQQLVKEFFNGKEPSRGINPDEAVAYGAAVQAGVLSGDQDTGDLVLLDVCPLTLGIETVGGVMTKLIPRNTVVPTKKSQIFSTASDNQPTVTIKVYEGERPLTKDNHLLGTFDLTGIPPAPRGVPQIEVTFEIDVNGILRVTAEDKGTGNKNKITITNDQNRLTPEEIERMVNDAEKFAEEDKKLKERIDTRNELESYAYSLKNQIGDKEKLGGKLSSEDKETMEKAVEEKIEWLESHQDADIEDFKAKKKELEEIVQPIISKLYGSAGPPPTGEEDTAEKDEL

Sequence of HBV particles (P03146 whole entry, looked up): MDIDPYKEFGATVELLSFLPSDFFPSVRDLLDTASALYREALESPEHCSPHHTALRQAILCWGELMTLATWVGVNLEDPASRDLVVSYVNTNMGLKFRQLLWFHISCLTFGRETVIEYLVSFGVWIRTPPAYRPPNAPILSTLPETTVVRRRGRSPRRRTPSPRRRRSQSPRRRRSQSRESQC
Sequence of HBV particles (P03138 whole entry, looked up): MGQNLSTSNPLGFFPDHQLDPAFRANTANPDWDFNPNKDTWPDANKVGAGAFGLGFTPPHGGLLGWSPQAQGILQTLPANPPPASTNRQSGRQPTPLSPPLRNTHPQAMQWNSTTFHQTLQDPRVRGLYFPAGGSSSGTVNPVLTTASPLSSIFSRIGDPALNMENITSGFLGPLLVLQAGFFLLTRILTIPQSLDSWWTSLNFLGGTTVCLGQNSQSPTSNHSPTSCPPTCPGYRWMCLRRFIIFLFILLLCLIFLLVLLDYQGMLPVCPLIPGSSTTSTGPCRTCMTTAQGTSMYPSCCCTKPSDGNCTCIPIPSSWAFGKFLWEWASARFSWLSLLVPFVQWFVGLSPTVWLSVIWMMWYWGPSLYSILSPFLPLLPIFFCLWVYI

In general, Kd refers to a measure of binding affinity in units of concentration. For the substance “HBV particles (from UniProt P03138;P03146) (complex)”, the Kd is 75.6 µM.

Values taken from publication doi:10.1101/2021.12.08.471876.
